Laboratory results taken from patent US20200362300A1 (OSE IMMUNOTHERAPEUTICS, published 2020).
Blank lines part the entries; values can stand above or below the molecule they belong to.

Experiments:
[1] = target: CD127-Fc (Sino Biological) (UniProt P16871); test: SPR (Biacore), single cycle kinetics, CD127-Fc immobilised on CM5 chip, bivalent model
[2] = target: human CD127 on human blood T cells (human) (UniProt P16871); test: flow cytometry on CD3+ cells of three human donors
[3] = target: T1, CD127-Fc (Sino Biological) (UniProt P16871 21-239, limits assumed); test: SPR (Biacore), single cycle kinetics, CD127-Fc immobilised on CM5 chip, bivalent model
T1 construct: whole entry named; Immobilised by amine coupling on a CM5 chip; also called CD127 protein; not shown: Fc part of the bought fusion; not described
T1 sequence (looked up): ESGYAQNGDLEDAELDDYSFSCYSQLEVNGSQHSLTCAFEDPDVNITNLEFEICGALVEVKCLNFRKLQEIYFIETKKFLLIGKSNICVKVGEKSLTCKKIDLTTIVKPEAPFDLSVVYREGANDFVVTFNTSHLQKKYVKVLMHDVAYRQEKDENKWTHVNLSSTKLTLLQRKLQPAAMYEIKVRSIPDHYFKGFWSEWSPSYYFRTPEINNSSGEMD
Procedure: CD127-Fc was immobilized by amine coupling on a CM5 chip. The carboxylic groups were esterified by injection of an NHS/EDC mix for 7 min. The CD127-Fc proteins diluted to 20 μg/ml in Na acetate buffer pH 4.6 were injected until an SPR signal of 500 RU was obtained. Free reactive sites were inactivated by injection of 1 M ethanolamine pH8.5 for 10 min.
Antibodies were analyzed in Single Cycle Kinetics (SCK) on CD127 to determine kinetic and affinity parameters. The surface functionalized with CD127-Fc was regenerated between each cycle by injection of a 4 M MgCl 2 solution for 30 seconds.

Kd [1]: 0.0683 nM
mean fluorescence intensity [2]: 4140 MFI
Molecule: eBIORDR5 (CD127 Monoclonal Antibody, eBioscience from Invitrogen/Thermo Fisher Scientific catalog # 14-1278-82)

Kd [3]: 1.62 nM
B1: Effi3-VH3VL3 (antibody, V domains shown)
VH: AVQLVESGGGLVQPGGSLKITCAASGFTFTNAAMYWVRQAPGKGLEWVARIRTKANNYATYYADSVKGRFTISRDDSKSTVYLQMDSVKTEDTATYYCIVVVLTTTRDYFDYWGQGVLVTVSS
VL: DIVLTQSPSSLPVTPGEPASISCRSSQSLLTVKGITSLYWFLQKPGQSPKLLIYRMSNRDSGVPDRFSGSGSETDFTLKISRVEAEDVGTYYCAQFLEYPHTFGAGTKLELKR
notes: also called Effi3-VH3L3; Effi3 clone VH3VL3
